Source: patent US20140370037A1 (published 2014)
Where a chain is given by its changes, count along the chain named.

T1: human DLL3 antigen (human, UniProt Q9NYJ7 27-492, limits assumed)
T1 construct: also called immobilized human DLL3; recombinant human DLL3
T1 sequence (looked up): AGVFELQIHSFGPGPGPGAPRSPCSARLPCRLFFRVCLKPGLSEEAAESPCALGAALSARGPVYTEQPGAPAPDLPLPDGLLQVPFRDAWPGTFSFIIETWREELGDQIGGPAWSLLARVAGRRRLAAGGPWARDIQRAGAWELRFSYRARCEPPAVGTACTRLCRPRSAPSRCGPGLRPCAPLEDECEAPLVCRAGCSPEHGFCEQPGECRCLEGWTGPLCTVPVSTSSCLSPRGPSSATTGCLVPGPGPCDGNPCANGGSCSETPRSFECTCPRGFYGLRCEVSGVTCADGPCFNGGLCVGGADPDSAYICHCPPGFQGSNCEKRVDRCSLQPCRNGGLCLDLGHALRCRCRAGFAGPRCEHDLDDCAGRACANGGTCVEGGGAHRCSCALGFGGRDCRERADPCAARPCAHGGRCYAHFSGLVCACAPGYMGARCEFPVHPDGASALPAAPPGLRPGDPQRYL

B1: SC16.4 (antibody, V domains shown)
VH: QIQLVQSGPELKKPGETVKISCKASGYTFTDYSMHWVKQAPGKGLKWMGWINTETGEPGYADDFKGRFAFSLETSASTAYLQINNLKNEDTATYFCARYDGYAMDYWGQGTSVTVSS
VL: DIQMTQTTSSLSASLGDRVTISCRASQDISNYLNWYQQKPDGTVKLLIYYTSRLHSGVPSRFSGSGSGTDYSLTISNLELEDIATYFCQQGDMLPWTFGGGTKLEIK
notes: murine mAb; also called mAb SC16.4
B2: SC16.35 (antibody, V domains shown)
VH: DVQLQESGPGLVKPSQSLSLTCTVTGYSITSDYAWNWIRQFPGNKLEWMGYISYSGSTSYNPSLKSRISITRDTSKNQFFLQLNSVTTEDTATYYCARFYYGSSYAMDYWGQGTSVTVSS
VL: B1 VL with L80Q, D92N, M93T, W96Y
notes: murine mAb
B3: SC16.49 (antibody, V domains shown)
VH: QVQLQQSGPELVKPGTLVKISCKASGYTFTSYDINWVKQRPGQGLEWIGWIYPGDGNTKYSEKFKGKATLTADKSSSTAYMQLTSLTSENSAVYFCARDYDYPFAYWGQGTLVTVSA
VL: DIKMTQSPSSMYASLGERVTITCKASQDINSYLSWFQQKPGKSPKTLIYRANRLVDGVPSRFSGSGSGQDYSLTITSLEYEDMGIYYCLQYDEFPLTFGAGTKLELK
notes: murine mAb
B4: SC16.52 (antibody, V domains shown)
VH: QVQLKESGPGLVAPSQSLSITCAVSGFSLTSFAIHWFRKPPGKGLEWLGVIWTGGTTNYNSALMSRLSISKDNSKSQVFLKMNSLQTDDTAMYYCARDDYDNNYAMDYWGQGTSVTVSS
VL: DIQMIQSPSSMFASLGDRVSLSCRASQGIRGTLDWYQQKPNGTIKLLIYSTSNLNSGVPSRFSGSGSGSDYSLTISSLESEDFADYYCLQRNAYPLTFGAGTKLELK
notes: murine mAb
B5: SC16.5 (antibody, V domains shown)
VH: QVTLKESGPGILQPSQTLSLTCSFSGFSLSTSGMGVGWIRQPSGEGLEWLADIWWDDNKYYNPSLKSRLTISKDTSSNQVFLKITSVDTADTATYYCARRVNYVYDPYYAMDYWGQGTSVTVSS
VL: QIVLTQSPAIMSASPGEKVTMTCSASSSVSYMHWYQQKSGTSPKRWIYDTSKLASGVPARFSGSGSGTSYSLTISSMEAEDAATYYCQQWTRNPLTFGAGTKLELK
notes: murine mAb
B6: SC16.25 (antibody, V domains shown)
VH: B5 VH with A51T, K83N, V104Y
VL: B5 VL with T50S, T91S, R92S
notes: murine mAb
B7: SC16.36 (antibody, V domains shown)
VH: QVQLQQSGAELAKPGASVKMSCKASGYTFTTYWMHWVKQRPGQGLEWIGYINPSSGYTEYNQKFKDKATLTADKSSSTAYMQLSSLTSEDSSVYYCARKGSNRGFAYWGQGTLVTVS
VL: ETTVTQSPASLSVTTGEKVTIRCITTPDIDDDMNWYQQKPGEPPNLLISEGNSLRPGVPSRFSSSGYGTNFVFTIENTLSEDVADYYCLQSDNMPFTFGSGTKLEIK
notes: murine mAb
B8: SC16.29 (antibody, V domains shown)
VH: QVQLQQSGAELARPGASVKLSCKASGYTFTDQYINWVKQRTGQGLEWIGEIYPGRGNTYYNEKFKGKATLTADKSSSTAYMQLSSLTSEDSAVYFCAREDGGYDDAWFAYWGQGTLVTVSA
VL: QIVLTQSPAIMSASPGEKVTITCSASSSVSYMHWFQQKPGTSPKLWIYTTSNLASGVPARFSGSGSGTSYSLTVSRMEAEDAATYYCQQRSLYPYTFGGGTKVEIK
notes: murine mAb
B9: SC16.34 (antibody, V domains shown)
VH: QIQLVQSGPELKRPGETVKISCKASGYTFTNYGMNWVKQAPGKGLKWMGWINTYTGDPTYADDFKGRFAFSLETSASTAYLQINNLKNEDTATYFCARIGGNSPSDYWGQGTSLTVSS
VL: SIVMTQTPKFLLVSAGDRVTITCKASQSVSNDVAWYQQKPGQSPKLLIYYASNRYSGVPDRFTGSGYGTDFTFTISTVQAEDLAVYFCQQDYSSPWTFGGGTKLEIK
notes: murine mAb
B10: SC16.26 (antibody, V domains shown)
VH: QIQLVQSGPELKKPGETVKISCKASGYSFTDYSMHWVKQAPGKGLKWMGWINTETVEPTYADDFMGRFAFSLETSASTAFLQINNLENEDTATYFCARFGSYAMDYWGQGTS
VL: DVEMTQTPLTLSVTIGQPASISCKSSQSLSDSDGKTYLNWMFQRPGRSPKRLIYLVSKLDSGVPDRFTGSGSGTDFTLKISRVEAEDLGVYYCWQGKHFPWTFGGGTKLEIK
notes: murine mAb
B11: SC16.55 (antibody, V domains shown)
VH: EVQLVESGGGLVQPKGSLKLSCAVSAFTFTTYAMNWVRQAPGKGLEWVARIRNKSNNYATYYADSVKDRFTISRDDSQSMLYLQMNNLKIEDTAMYYCVFYYDYVYWGQGTLVTVSA
VL: DIKMTQSPSSMYASLGERVTITCKASQDINSYLNWFQQKPGKSPKTLIYRANRLVDGVPSRFSGSGSGQDYSLTISSLEYEDMGIYYCLQYDEFPYTFGGGTKLEIKR
notes: murine mAb
B12: SC16.38 (antibody, V domains shown)
VH: EVQLQQSGAELVKPGASVKLSCTVSGFNIKDTYIHWVKQRPEQGLEWIGRIDPANGNTKYDPKFQGKATITADTSSNTAYLQLSSLTSEDTAVYYCARPTGYFEYWGQGTTLTVSS
VL: QIVLTQSPAIMSASPGEKVTMTCSASSSINYMHWYQQKPGTSPKRWIYDTSKLASGVPARFSGSGSGTSYSLTISSMEAEDAATYYCHQRSTWTFGGGTKLEIK
notes: murine mAb
B13: SC16.47 (antibody, V domains shown)
VH: EVQLQQSGPELVKPGASVKISCKASGYSFSRFYMHWVKQSPENSLEWIGEINPSTGGTSYNQKFKGKATLTVDKSSSTAYMQLKSLTSEESAVYYCTRGYGSNCYFDVWGAGTTVTVST
VL: DVVLTQSPLSLPVNIGDQASISCKSTKSLLNSDGFTYLDWYLQRPGQSPQFLIYLVSNRFSGVPDRFSGSGSGTDFTLKISRVEAEDLGVYYCFQSNYLPLTFGAGTKLELR
notes: murine mAb
B14: SC16.45 (antibody, V domains shown)
VH: QVQLQQSGADLVRPGTSVKVSCKASGYSFTNYLIEWVKQRPGQGLEWIGVINPGSGGTHYNEKFKDKAVLTADKSSTTAHMQLSSLTSDDSAVYFCARSPYDYNDGAMDYWGQGTSVTVSS
VL: EIQMTQSPSSMSASLGDRITITCQATQDIVKNLNWYQQKPGKPPSFLIYYATELAEGVPARFSGSGSGSDYSLTISNLESEDFADYHCLQFYEFPFTFGAGTKLELK
notes: murine mAb
B15: SC16.30 (antibody, V domains shown)
VH: QVTLKESGPGILQPSQTLSLTCSFSGFSLSTSGMGVGWIRQPSGKGLEWLAHIWWDDVKRYKPALKSRLTVSKDTSSNQVFLKIATVDAADTGTYYCARIVDGHPPFAYWGQGTLVTVSA
VL: QIVLTQSPTIMSASLGERVTMTCTASSSVTSSYLHWYQQKPGSSPKLWIYSTSNLASGVPARFSGSGSGTSYSLTISSMEAEDAATYYCHQFHRSPFTFGSGTKLEIK
notes: murine mAb
B16: SC16.42 (antibody, V domains shown)
VH: QIQLVQSGPELKKPGETVKISCKASGYTFTTAGMQWVQKMPGKGFKWIGWINTHSGEPKYADDFKGRFAFSLETSASTAYLQISNLKDEDTATFFCAPLWSDSSFAYWGQGTLVTVSA
VL: DVLMTQSPLSLSVSLGDQASISCRSSQNIVHSDRYTYLEWYLQKPGQSPKLLIYGVSNRFSGVPDRFSGSGSGTDFTLKISRVEAEDMGVYYCFQGTHVPYTFGGGTKLEIK
notes: murine mAb

Target: T1, human DLL3 antigen
Experiment: ELISA or flow cytometry screen

Binder	binding result
B1	binds
B2	binds
B3	binds
B4	binds
B5	binds
B6	binds
B7	binds
B8	binds
B9	binds
B10	binds
B11	binds
B12	binds
B13	binds
B14	binds
B15	binds
B16	binds
